Laboratory results from paper PMC3025549.

Target: recombinant mjRNAP (RNA polymerase of M. jannaschii), wild type (M. jannaschii) (UniProt Q58445)
Assay: native gel or EMSA

recruitment activity relative to wild type (% of wild type): 140
B1: mjTFIIB K87-A (natural protein)
chain: MVWLMEALKTKENETTKEKKLTTKVEKSEKKEENVREEEIVCPICGSKEVVKDYERAEIVCAKCGCVIKEKLFDIGPEWRAFDHEQAIKRCRVGAPMTYSVDYNEPIIIKENGEIKVVKIGELIDKIIENSENIRREGILEIAKCKGIEVIAFNSNYKFKFMPVSEVSRHPVSEMFEIVVEGNKKVRVTRSHSVFTIRDNEVVPIRVDELKVGDILVLAKELPNIEEDIEIDKKFSKILGYIIAEGYYDDKKIVLSYDYNEKEFINETIDYFKSLNSDITIYSKDLNIQIEVKNKKIINLLKKLRVKNKRIPSIIFKSPYEIKKSFIDGIFNGKDAKVFVSKELAEDVIFLLLQIKENATINKKSINDIEVYEVRRITNIYTNRKLEKLINSDFIFLKIKEINKVEPTSGYAYDLTVPNAENFVAGFGGFVLHNTIHDKGLSTVIDWRNKDSYGKDLSANKRAQLYRLRKWQRRIRVSDAAERNLAFALSELDRITSKLGLPRHVRENAAIIYRGAVEKGLIRGRSIEGVVAAAIYAACRRCRVPRTLDEIAEASRVDRKEIGRTYRFLARELNIKLTPTNPIDYVPRFASELGLPGEVESKAIQILQQAAEKGLTSGRGPTGVAAAAIYIASVLLGCRRTQREVAEVAGVTEVTIRNRYKELTEHLDIDVTL
